{
  "source": "paper PMC2931692",
  "molecular_target": "soluble HA of A/Aichi/2/68 (H3N2) modified at the C-terminus with the GCN4pII trimerization repeat (influenza A virus A/Aichi/2/68 (H3N2) | Saccharomyces cerevisiae) (UniProt P03437)",
  "assay": "cross-linking",
  "data": [
    {"substance": "soluble HA of A/Aichi/2/68 (H3N2) modified at the C-terminus with the GCN4pII trimerization repeat (from UniProt P03437 17-528)", "values": [
      {"measurement": "stoichiometry N", "result": 3}
    ]}
  ]
}
